Data from article PMC3864901, “A Conserved Sequence Extending Motif III of the Motor Domain in the Snf2-Family DNA Translocase Rad54 Is Critical for ATPase Activity” (PLoS ONE, 2013).

What was measured:
[1] = test system: Rad54 (Saccharomyces cerevisiae); assay: EMSA (glutaraldehyde-fixed, agarose); details: 13 mM Mg acetate, 25 mM TEA-Ac pH 7.5, 13 mM Mg acetate, 1.8 mM DTT, 100 ug/ml BSA, 11.25% glycerol, 113 mM NaCl, 30 uM bp pUC19, 30 C 15 min, then 0.25% glutaraldehyde 15 min …
[2] = substrate: Nc1ncnc2c1ncn2[C@@H]1O[C@H](COP(=O)(O)OP(=O)(O)OP(=O)(O)O)[C@@H](O)[C@H]1O; assay: NADH-coupled ATPase assay, Michaelis-Menten fit; type: biochemical, Saccharomyces cerevisiae; details: 1.5 uM pUC19 dsDNA, 2.5 mM free Mg(OAc)2, 25 mM HEPES pH 7.5, 30 C, 5 nM Rad54
Source text: NADH-coupled ATPase assay, Michaelis-Menten fit on Rad54 | Michaelis-Menten parameters of Rad54 and Rad54-2A as determined from the ATP titrations in B

Molecule: pUC19 supercoiled dsDNA
- binding (bp per Rad54 monomer (all DNA bound)) ([1]; 5 mM ATP + regeneration system): 36
- binding (bp per Rad54 monomer (all DNA bound)) ([1]; no nucleotide): 36

B1: Rad54 (Saccharomyces cerevisiae S288C) (protein)
chain: MARRRLPDRPPNGIGAGERPRLVPRPINVQDSVNRLTKPFRVPYKNTHIPPAAGRIATGSDNIVGGRSLRKRSATVCYSGLDINADEAEYNSQDISFSQLTKRRKDALSAQRLAKDPTRLSHIQYTLRRSFTVPIKGYVQRHSLPLTLGMKKKITPEPRPLHDPTDEFAIVLYDPSVDGEMIVHDTSMDNKEEESKKMIKSTQEKDNINKEKNSQEERPTQRIGRHPALMTNGVRNKPLRELLGDSENSAENKKKFASVPVVIDPKLAKILRPHQVEGVRFLYRCVTGLVMKDYLEAEAFNTSSEDPLKSDEKALTESQKTEQNNRGAYGCIMADEMGLGKTLQCIALMWTLLRQGPQGKRLIDKCIIVCPSSLVNNWANELIKWLGPNTLTPLAVDGKKSSMGGGNTTVSQAIHAWAQAQGRNIVKPVLIISYETLRRNVDQLKNCNVGLMLADEGHRLKNGDSLTFTALDSISCPRRVILSGTPIQNDLSEYFALLSFSNPGLLGSRAEFRKNFENPILRGRDADATDKEITKGEAQLQKLSTIVSKFIIRRTNDILAKYLPCKYEHVIFVNLKPLQNELYNKLIKSREVKKVVKGVGGSQPLRAIGILKKLCNHPNLLNFEDEFDDEDDLELPDDYNMPGSKARDVQTKYSAKFSILERFLHKIKTESDDKIVLISNYTQTLDLIEKMCRYKHYSAVRLDGTMSINKRQKLVDRFNDPEGQEFIFLLSSKAGGCGINLIGANRLILMDPDWNPAADQQALARVWRDGQKKDCFIYRFISTGTIEEKIFQRQSMKMSLSSCVVDAKEDVERLFSSDNLRQLFQKNENTICETHETYHCKRCNAQGKQLKRAPAMLYGDATTWNHLNHDALEKTNDHLLKNEHHYNDISFAFQYISH
notes: wild-type yeast Rad54, overexpressed in S. cerevisiae and purified as in earlier work
- Km [2]: 170 ± 40 µM
- kcat [2]: 1,219 ± 45 min-1
